According to patent US20170022287A1 (Chugai, published 2017):

Columns and labels:
CRD1 [1] = target: T1, CRD1; experiment: ELISA, coated CD137-Fc protein 2 µg/mL, antibody 10 or 5 µg/mL, absorbance 620 nm; Non (uncoated well) 0.055
T1 construct: also called fragmented human CD137-Fc fusion protein CRD1
Experimental: (§1) Fragmented human CD137-Fc fusion proteins were diluted to 2 μg/mL in an aqueous sodium carbonate solution adjusted to pH9.6. Fifty μL of a diluted fragmented human CD137-Fc fusion protein was added individually to each well of a Nunc MaxiSorp flat-bottom 96 well plate (Nunc). This was allowed to stand at 4° C. overnight or longer, and then the plate was allowed to stand at room temperature for one hour so that the plate has the same temperature as the room temperature. The solution containing the fragmented human CD137-Fc fusion protein was removed by tilting, and each well was washed three times with 300 μL of Wash buffer (TBS containing 0.1% Tween20, TaKaRa). Next, 150 μL of blocking buffer (TBS containing 2% BSA) was added to each well, and this was allowed to stand for one hour or more. The blocking buffer was removed by tilting, and each well was washed three times with Wash Buffer in a similar manner to an earlier step. Then, 50 μL of an antibody solution prepared in advance by dilution with TBS to 10 μg/mL or 5 μg/mL was added to each well. This was subjected to a speed of 600 rpm or so for one hour at room temperature to bind the antibody to the immobilized antigen. […] 100 μL of a secondary antibody solution produced by 1000-fold dilution with TBS containing 0.1% Tween20 was added to each well. For the secondary antibody, ANTIBODY ALKALINE PHOSPHATASE CONJUGATE HUMAN IMMUNOGLOBULIN ABSORBED Goat Anti-Human Kappa Alkaline Phosphate from BIOSOURCE was used in the case of antibodies carrying a Kappa chain, and Human Lambda Light Chain Antibody; Goat anti-Human Lambda Light Chain Antibody Alkaline Phosphatase Conjugated from BETHYL LABORATORIES INC. was used in the case of antibodies carrying a Lambda chain. […] Color development was performed using the BluePhos Microwell kit from KPL. After the chromogenic reaction was stopped using the AP stop solution from KPL, the absorbance was measured at 620 nm on an absorptiometer.

CRD1-2 [2] = target: T2, CRD1-2; experiment: as above
T2 construct: also called fragmented human CD137-Fc fusion protein CRD1-2
Experimental: as §1

CRD3-4 [3] = target: T3, CRD3-4; experiment: as above
T3 construct: also called fragmented human CD137-Fc fusion protein CRD3-4
Experimental: as §1

CRD3-4 [4] = target: T3, CRD3-4; experiment: ELISA, coated CD137-Fc protein 2 µg/mL, antibody 10 or 5 µg/mL; absorbance 620 nm divided by that of the uncoated well
CRD1-3 [5] = target: T4, CRD1-3; experiment: ELISA, coated CD137-Fc protein 2 µg/mL, antibody 10 or 5 µg/mL, absorbance 620 nm; Non (uncoated well) 0.101
T4 construct: also called fragmented human CD137-Fc fusion protein CRD1-3

CRD1-2 [6] = target: T2, CRD1-2; experiment: as above
CRD2-4 [7] = target: T5, CRD2-4; experiment: as above
T5 construct: also called fragmented human CD137-Fc fusion protein CRD2-4

CRD2-3 [8] = target: T6, CRD2-3; experiment: as above
T6 construct: also called fragmented human CD137-Fc fusion protein CRD2-3

CRD3-4 [9] = target: T3, CRD3-4; experiment: as above
[10] = target: full-length human CD137-Fc fusion protein (human); experiment: as above
CRD1-3 [11] = target: T4, CRD1-3; experiment: ELISA, coated CD137-Fc protein 2 µg/mL, antibody 10 or 5 µg/mL; absorbance 620 nm divided by that of the uncoated well
CRD1-2 [12] = target: T2, CRD1-2; experiment: as above
CRD2-4 [13] = target: T5, CRD2-4; experiment: as above
CRD2-3 [14] = target: T6, CRD2-3; experiment: as above
[15] = target: full-length human CD137-Fc fusion protein (human); experiment: as above
CRD1 [16] = target: T1, CRD1; experiment: ELISA, coated CD137-Fc protein 2 µg/mL, antibody 10 or 5 µg/mL, absorbance 620 nm; Non (uncoated well) 0.4435
CRD1-3 [17] = target: T4, CRD1-3; experiment: as above
CRD1-2 [18] = target: T2, CRD1-2; experiment: as above
CRD2-4 [19] = target: T5, CRD2-4; experiment: as above
CRD2-3 [20] = target: T6, CRD2-3; experiment: as above
CRD3-4 [21] = target: T3, CRD3-4; experiment: as above
[22] = target: full-length human CD137-Fc fusion protein (human); experiment: as above
CRD1 [23] = target: T1, CRD1; experiment: ELISA, coated CD137-Fc protein 2 µg/mL, antibody 10 or 5 µg/mL; absorbance 620 nm divided by that of the uncoated well
CRD1 [24] = target: T1, CRD1; experiment: ELISA, coated CD137-Fc protein 2 µg/mL, antibody 10 or 5 µg/mL, absorbance 620 nm; Non (uncoated well) 0.049
CRD1-3 [25] = target: T4, CRD1-3; experiment: as above
CRD1-2 [26] = target: T2, CRD1-2; experiment: as above
CRD2-4 [27] = target: T5, CRD2-4; experiment: as above
CRD2-3 [28] = target: T6, CRD2-3; experiment: as above
CRD3-4 [29] = target: T3, CRD3-4; experiment: as above
[30] = target: full-length human CD137-Fc fusion protein (human); experiment: as above

T4 sequence (chain, as listed by the source limits assumed): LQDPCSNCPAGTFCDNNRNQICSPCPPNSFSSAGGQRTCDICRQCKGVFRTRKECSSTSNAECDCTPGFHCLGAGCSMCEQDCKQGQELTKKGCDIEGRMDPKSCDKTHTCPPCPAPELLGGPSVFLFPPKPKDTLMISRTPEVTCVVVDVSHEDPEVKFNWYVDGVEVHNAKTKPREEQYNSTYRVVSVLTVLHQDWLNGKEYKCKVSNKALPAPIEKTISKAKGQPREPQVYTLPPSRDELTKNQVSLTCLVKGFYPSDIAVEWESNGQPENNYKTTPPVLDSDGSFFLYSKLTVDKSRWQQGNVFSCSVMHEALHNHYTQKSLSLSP
T5 sequence (chain, as listed by the source limits assumed): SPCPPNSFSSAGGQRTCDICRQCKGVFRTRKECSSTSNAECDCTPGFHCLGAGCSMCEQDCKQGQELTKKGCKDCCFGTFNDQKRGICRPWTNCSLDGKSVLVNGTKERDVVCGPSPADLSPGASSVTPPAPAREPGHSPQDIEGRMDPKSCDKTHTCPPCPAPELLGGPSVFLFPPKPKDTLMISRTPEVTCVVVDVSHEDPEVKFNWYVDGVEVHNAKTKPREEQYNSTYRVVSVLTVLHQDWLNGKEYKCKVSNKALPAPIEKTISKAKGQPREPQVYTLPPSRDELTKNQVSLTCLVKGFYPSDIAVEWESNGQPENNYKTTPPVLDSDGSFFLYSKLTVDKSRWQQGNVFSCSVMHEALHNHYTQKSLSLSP
T2 sequence (chain, as listed by the source limits assumed): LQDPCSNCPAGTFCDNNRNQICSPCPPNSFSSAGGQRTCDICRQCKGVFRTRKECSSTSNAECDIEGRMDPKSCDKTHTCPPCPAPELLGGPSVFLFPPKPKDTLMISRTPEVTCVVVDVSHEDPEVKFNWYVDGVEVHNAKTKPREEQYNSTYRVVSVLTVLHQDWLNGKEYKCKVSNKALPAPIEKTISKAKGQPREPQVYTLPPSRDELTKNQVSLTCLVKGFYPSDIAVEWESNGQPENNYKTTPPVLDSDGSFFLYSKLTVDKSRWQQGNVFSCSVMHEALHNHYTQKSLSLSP
T6 sequence (chain, as listed by the source limits assumed): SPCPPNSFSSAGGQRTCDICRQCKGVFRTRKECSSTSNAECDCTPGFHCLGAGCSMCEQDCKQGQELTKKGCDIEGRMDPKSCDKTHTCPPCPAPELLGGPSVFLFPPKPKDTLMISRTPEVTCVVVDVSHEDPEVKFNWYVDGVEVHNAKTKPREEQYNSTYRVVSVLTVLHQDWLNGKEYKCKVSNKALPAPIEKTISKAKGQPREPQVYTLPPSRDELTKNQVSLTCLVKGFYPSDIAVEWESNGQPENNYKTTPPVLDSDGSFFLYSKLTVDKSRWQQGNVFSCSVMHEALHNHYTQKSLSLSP
Sequence of full-length human CD137-Fc fusion protein (human) (chain, as listed by the source limits assumed): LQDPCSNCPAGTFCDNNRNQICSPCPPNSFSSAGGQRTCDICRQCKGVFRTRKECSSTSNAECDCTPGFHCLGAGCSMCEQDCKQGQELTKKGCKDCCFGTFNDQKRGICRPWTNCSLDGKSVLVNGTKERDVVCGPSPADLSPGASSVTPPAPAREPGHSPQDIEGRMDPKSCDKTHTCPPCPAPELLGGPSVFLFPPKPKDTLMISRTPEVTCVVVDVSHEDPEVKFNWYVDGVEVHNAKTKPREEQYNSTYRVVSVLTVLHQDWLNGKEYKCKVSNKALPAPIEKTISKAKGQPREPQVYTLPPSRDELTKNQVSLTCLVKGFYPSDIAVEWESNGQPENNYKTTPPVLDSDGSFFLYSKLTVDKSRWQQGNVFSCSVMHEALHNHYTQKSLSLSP
T1 sequence (chain, as listed by the source limits assumed): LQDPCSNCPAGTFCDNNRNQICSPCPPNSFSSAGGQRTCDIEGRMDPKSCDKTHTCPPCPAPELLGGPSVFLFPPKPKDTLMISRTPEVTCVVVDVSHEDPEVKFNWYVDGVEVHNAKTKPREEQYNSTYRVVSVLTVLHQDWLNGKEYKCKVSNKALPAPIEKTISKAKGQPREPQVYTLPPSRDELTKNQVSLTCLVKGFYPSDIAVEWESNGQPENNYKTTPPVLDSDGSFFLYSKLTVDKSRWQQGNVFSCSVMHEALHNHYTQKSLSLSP
T3 sequence (chain, as listed by the source limits assumed): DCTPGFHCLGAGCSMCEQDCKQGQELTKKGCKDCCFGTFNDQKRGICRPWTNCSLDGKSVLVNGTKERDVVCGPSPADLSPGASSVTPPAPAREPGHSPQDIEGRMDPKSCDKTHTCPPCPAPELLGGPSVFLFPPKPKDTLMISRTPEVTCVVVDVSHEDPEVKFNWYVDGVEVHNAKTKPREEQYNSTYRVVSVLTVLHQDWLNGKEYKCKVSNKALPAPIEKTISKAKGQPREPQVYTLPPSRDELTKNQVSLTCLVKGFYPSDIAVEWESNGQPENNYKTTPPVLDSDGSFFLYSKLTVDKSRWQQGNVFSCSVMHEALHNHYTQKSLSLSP

B1: M (antibody, human IgG1, lambda, V domains shown)
VH: EVQLVQSGAEVKKPGESLRISCKGSGYSFSTYWISWVRQMPGKGLEWMGKIYPGDSYTNYSPSFQGQVTISADKSISTAYLQWSSLKASDTAMYYCARGYGIFDYWGQGTLVTVSS
VL: SYELTQPPSVSVSPGQTASITCSGDNIGDQYAHWYQQKPGQSPVLVIYQDKNRPSGIPERFSGSNSGNTATLTISGTQAMDEADYYCATYTGFGSLAVFGGGTKLTVLQ
notes: also called Control M
- ELISA color development level (CRD1 [1]): 0.093
- ELISA color development level (CRD1-2 [2]): 0.085
- ELISA color development level (CRD3-4 [3]): 2.26
- Ratio with respect to Non-Coating (CRD3-4 [4]): 41.1

B2: R10 (antibody, V domains shown)
VH: not shown
VL: DIQMTQSPSSLSASVGDRVTITCRASQSISSYLNWYQQKPGKAPKLLIYAASSLQSGVPSRFSGSGSGTDFTLTISSLQPEDFATYYCQQFDNFPLTFGGGTKVEIK
notes: Synthetic library clone; Fab on phage in the phage ELISA
- ELISA color development level (CRD1-3 [5]): 2.46
- ELISA color development level (CRD1-2 [6]): 0.222
- ELISA color development level (CRD2-4 [7]): 2.46
- ELISA color development level (CRD2-3 [8]): 2.64
- ELISA color development level (CRD3-4 [9]): 2.75
- ELISA color development level [10]: 2.59
- Ratio with respect to Non-Coating (CRD1-3 [11]): 24.4
- Ratio with respect to Non-Coating (CRD1-2 [12]): 2.2
- Ratio with respect to Non-Coating (CRD2-4 [13]): 24.3
- Ratio with respect to Non-Coating (CRD2-3 [14]): 26.1
- Ratio with respect to Non-Coating (CRD3-4 [4]): 27.2
- Ratio with respect to Non-Coating [15]: 25.6

B3: R7 (antibody, V domains shown)
VH: QVQLLESGGGLVQPGGSLRLSCAASGFTFSSYAMSWVRQAPGKGLEWVSAISGSGGSTYYADSVKGRFTISRDNSKNTLYLQMNSLRAEDTAVYYCARDRAMYHPSFNYWGQGTLVTVSS
VL: DIQMTQSPSSLSASVGDRVTITCRASQSISSYLNWYQQKPGKAPKLLIYAASSLQSGVPSRFSGSGSGTDFTLTISSLQPEDFATYYCQQFNSYPLTFGGGTKVEIK
notes: as for B2
- ELISA color development level (CRD1 [16]): 0.61
- ELISA color development level (CRD1-3 [17]): 2.23
- ELISA color development level (CRD1-2 [18]): 0.814
- ELISA color development level (CRD2-4 [19]): 2.19
- ELISA color development level (CRD2-3 [20]): 2.52
- ELISA color development level (CRD3-4 [21]): 2.63
- ELISA color development level [22]: 1.92
- Ratio with respect to Non-Coating (CRD1 [23]): 1.4
- Ratio with respect to Non-Coating (CRD1-3 [11]): 5
- Ratio with respect to Non-Coating (CRD1-2 [12]): 1.8
- Ratio with respect to Non-Coating (CRD2-4 [13]): 4.9
- Ratio with respect to Non-Coating (CRD2-3 [14]): 5.7
- Ratio with respect to Non-Coating (CRD3-4 [4]): 5.9
- Ratio with respect to Non-Coating [15]: 4.3

B4: B (antibody, human IgG1, kappa, V domains shown)
VH: QVQLQQWGAGLLKPSETLSLTCAVYGGSFSGYYWSWIRQSPEKGLEWIGEINHGGYVTYNPSLESRVTISVDTSKNQFSLKLSSVTAADTAVYYCARDYGPGNYDWYFDLWGRGTLVTVSS
VL: EIVLTQSPATLSLSPGERATLSCRASQSVSSYLAWYQQKPGQAPRLLIYDASNRATGIPARFSGSGSGTDFTLTISSLEPEDFAVYYCQQRSNWPPALTFGGGTKVEIKR
notes: also called Control B
- ELISA color development level (CRD1 [24]): 1.75
- ELISA color development level (CRD1-3 [25]): 2.33
- ELISA color development level (CRD1-2 [26]): 2.58
- ELISA color development level (CRD2-4 [27]): 0.097
- ELISA color development level (CRD2-3 [28]): 0.089
- ELISA color development level (CRD3-4 [29]): 0.074
- ELISA color development level [30]: 2.67
- Ratio with respect to Non-Coating (CRD1 [23]): 35.7
- Ratio with respect to Non-Coating (CRD1-3 [11]): 47.5
- Ratio with respect to Non-Coating (CRD1-2 [12]): 52.7
- Ratio with respect to Non-Coating (CRD2-4 [13]): 2
- Ratio with respect to Non-Coating (CRD2-3 [14]): 1.8
- Ratio with respect to Non-Coating (CRD3-4 [4]): 1.5
- Ratio with respect to Non-Coating [15]: 54.6
